Reference: PMC2430334

Target: T1, rOxyR (Porphyromonas gingivalis 33277?) (UniProt B2RHP2)
T1 sequence: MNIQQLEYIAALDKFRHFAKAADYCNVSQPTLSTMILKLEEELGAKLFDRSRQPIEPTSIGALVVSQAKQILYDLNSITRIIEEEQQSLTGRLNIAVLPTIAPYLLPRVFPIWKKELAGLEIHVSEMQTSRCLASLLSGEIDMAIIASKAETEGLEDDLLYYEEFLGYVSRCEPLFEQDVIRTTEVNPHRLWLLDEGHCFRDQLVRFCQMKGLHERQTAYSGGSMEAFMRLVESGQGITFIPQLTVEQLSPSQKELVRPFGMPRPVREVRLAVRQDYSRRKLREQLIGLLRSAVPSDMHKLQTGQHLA
Test: EMSA

Sequence	binding
CGTCTTACCGGCTTCCCTATAGCAAAGGAAAGCATTTTTTTCTACTAAAAATTAATTCTAACAATATTCTGCTGTCTTCTACGTGTTTATACGCAGAAAAACGAAAAAAAACCGCACTACTCAATAAAAAAAACGCGATATTGACCCTCGCGAGAG (double strand) [mfa1 promoter region]	no binding
CTTTTCGCCCGAAGGTTTTATCTTCCGGCCGGAGCTTTCGGATGAGATCAACTACCTTTTCGTCATGGAATGAATCGGTTTTTACGACCAAGATTCGAACCTTTTTCCGTTCATCATGTTCTTATAATGATTAAAAAGTTGTCGGTGTCGGTTTTACACTGCTCCGATACAAATTATTAAAAGACTTAATTACAATAAAAATCAGACGTT (double strand) [sod promoter region]	binds
